# The supplement of paper PMC11316812
# ± gives the standard deviation of the averaged measurements.
# Key:
# MCF7 = assay: percentage of EdU-negative (G0-arrested) nuclei per well, 72 h; higher = more G0 arrest; details: reference: sequence is the full UniProt precursor, the tested protein was the secreted form or ectodomain
# hTERT-HMEC = assay: as above; details: reference: sequence is the full UniProt precursor, the tested protein was the secreted form or ectodomain
# [1] = protein concentration 0.0308571 µM
# [2] = protein concentration 0.308571 µM
# [3] = protein concentration 0.0225 µM
# [4] = protein concentration 0.02102 µM
# [5] = protein concentration 0.2102 µM
# [6] = protein concentration 0.0229925 µM
# [7] = protein concentration 0.229925 µM
# [8] = protein concentration 0.0065 µM
# 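Note: secreted proteins added to cultured cells, EdU pulse at the end, nuclei found by Hoechst imaging, EdU status from nuclear versus surrounding ring intensity ratio, PBS as neutral control.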
sequence,measurement,setting,value
MARLGNCSLTWAALIILLLPGSLEECGHISVSAPIVHLGDPITASCIIKQNCSHLDPEPQILWRLGAELQPGGRQQRLSDGTQESIITLPHLNHTQAFLSCCLNWGNSLQILDQVELRAGYPPAIPHNLSCLMNLTTSSLICQWEPGPETHLPTSFTLKSFKSRGNCQTQGDSILDCVPKDGQSHCCIPRKHLLLYQNMGIWVQAENALGTSMSPQLCLDPMDVVKLEPPMLRTMDPSPEAAPPQAGCLQLCWEPWQPGLHINQKCELRHKPQRGEASWALVGPLPLEALQYELCGLLPATAYTLQIRCIRWPLPGHWSDWSPSLELRTTERAPTVRLDTWWRQRQLDPRTVQLFWKPVPLEEDSGRIQGYVVSWRPSGQAGAILPLCNTTELSCTFHLPSEAQEVALVAYNSAGTSRPTPVVFSESRGPALTRLHAMARDPHSLWVGWEPPNPWPQGYVIEWGLGPPSASNSNKTWRMEQNGRATGFLLKENIRPFQLYEIIVTPLYQDTMGPSQHVYAYSQEMAPSHAPELHLKHIGKTWAQLEWVPEPPELGKSPLTHYTIFWTNAQNQSFSAILNASSRGFVLHGLEPASLYHIHLMAASQAGATNSTVLTLMTLTPEGSELHIILGLFGLLLLLTCLCGTAWLCCSPNRKNPLWPSVPDPAHSSLGSWVPTIMEEDAFQLPGLGTPPITKLTVLEEDEKKPVPWESHNSSETCGLPTLVQTYVLQGDPRAVSTQPQSQSGTSDQVLYGQLLGSPTSPGPGHYLRCDSTQPLLAGLTPSPKSYENLWFQASPLGTLVTPAPSQEDDCVFGPLLNFPLLQGIRVHGMEALGSF,percentage of EdU-negative,MCF7; [1],27.8 ± 0.38%
same,percentage of EdU-negative,MCF7; [2],29.5 ± 3%
same,percentage of EdU-negative,hTERT-HMEC; [1],5.21 ± 0.22%
same,percentage of EdU-negative,hTERT-HMEC; [2],10.7 ± 1.1%
MARMGLAGAAGRWWGLALGLTAFFLPGVHSQVVQVNDSMYGFIGTDVVLHCSFANPLPSVKITQVTWQKSTNGSKQNVAIYNPSMGVSVLAPYRERVEFLRPSFTDGTIRLSRLELEDEGVYICEFATFPTGNRESQLNLTVMAKPTNWIEGTQAVLRAKKGQDDKVLVATCTSANGKPPSVVSWETRLKGEAEYQEIRNPNGTVTVISRYRLVPSREAHQQSLACIVNYHMDRFKESLTLNVQYEPEVTIEGFDGNWYLQRMDVKLTCKADANPPATEYHWTTLNGSLPKGVEAQNRTLFFKGPINYSLAGTYICEATNPIGTRSGQVEVNITEFPYTPSPPEHGRRAGPVPTAIIGGVAGSILLVLIVVGGIVVALRRRRHTFKGDYSTKKHVYGNGYSKAGIPQHHPPMAQNLQYPDDSDDEKKAGPLGGSSYEEEEEEEEGGGGGERKVGGPHPKYDEDAKRPYFTVDEAEARQDGYGDRTLGYQYDPEQLDLAENMVSQNDGSFISKKEWYV,percentage of EdU-negative,MCF7; [3],25.4 ± 4.4%
same,percentage of EdU-negative,MCF7; protein concentration 0.225 µM,23.9 ± 2.4%
same,percentage of EdU-negative,hTERT-HMEC; [3],4.56 ± 1.1%
same,percentage of EdU-negative,hTERT-HMEC; protein concentration 0.225 µM,4.77 ± 0.62%
MARPGQRWLGKWLVAMVVWALCRLATPLAKNLEPVSWSSLNPKFLSGKGLVIYPKIGDKLDIICPRAEAGRPYEYYKLYLVRPEQAAACSTVLDPNVLVTCNRPEQEIRFTIKFQEFSPNYMGLEFKKHHDYYITSTSNGSLEGLENREGGVCRTRTMKIIMKVGQDPNAVTPEQLTTSRPSKEADNTVKMATQAPGSRGSLGDSDGKHETVNQEEKSGPGASGGSSGDPDGFFNSKVALFAAVGAGCVIFLLIIIFLTVLLLKLRKRHRKHTQQRAAALSLSTLASPKGGSGTAGTEPSDIIIPLRTTENNYCPHYEKVSGDYGHPVYIVQEMPPQSPANIYYKV,percentage of EdU-negative,MCF7; [4],26.6 ± 1.7%
same,percentage of EdU-negative,MCF7; [5],27.1 ± 2.8%
same,percentage of EdU-negative,hTERT-HMEC; [4],5.93 ± 0.36%
same,percentage of EdU-negative,hTERT-HMEC; [5],5.52 ± 0.52%
MARPLCTLLLLMATLAGALASSSKEENRIIPGGIYDADLNDEWVQRALHFAISEYNKATEDEYYRRPLQVLRAREQTFGGVNYFFDVEVGRTICTKSQPNLDTCAFHEQPELQKKQLCSFEIYEVPWEDRMSLVNSRCQEA,percentage of EdU-negative,MCF7; [3],25.1 ± 1.4%
same,percentage of EdU-negative,MCF7; protein concentration 0.225 µM,24.36 ± 0.2%
same,percentage of EdU-negative,hTERT-HMEC; [3],5.17 ± 0.14%
same,percentage of EdU-negative,hTERT-HMEC; protein concentration 0.225 µM,6.38 ± 0.58%
MARPNKFLLWFCCFAWLCFPISLGSQASGGEAQIAASAELESGAMPWSLLQHIDERDRAGLLPALFKVLSVGRGGSPRLQPDSRALHYMKKLYKTYATKEGIPKSNRSHLYNTVRLFTPCTRHKQAPGDQVTGILPSVELLFNLDRITTVEHLLKSVLLYNINNSVSFSSAVKCVCNLMIKEPKSSSRTLGRAPYSFTFNSQFEFGKKHKWIQIDVTSLLQPLVASNKRSIHMSINFTCMKDQLEHPSAQNGLFNMTLVSPSLILYLNDTSAQAYHSWYSLHYKRRPSQGPDQERSLSAYPVGEEAAEDGRSSHHRHRRGQETVSSELKKPLGPASFNLSEYFRQFLLPQNECELHDFRLSFSQLKWDNWIVAPHRYNPRYCKGDCPRAVGHRYGSPVHTMVQNIIYEKLDSSVPRPSCVPAKYSPLSVLTIEPDGSIAYKEYEDMIATKCTCR,percentage of EdU-negative,MCF7; [6],24.683 ± 0.017%
same,percentage of EdU-negative,MCF7; [7],29.8 ± 2.2%
same,percentage of EdU-negative,hTERT-HMEC; [6],4.1 ± 0.078%
same,percentage of EdU-negative,hTERT-HMEC; [7],4.84 ± 1.5%
MARPVRGGLGAPRRSPCLLLLWLLLLRLEPVTAAAGPRAPCAAACTCAGDSLDCGGRGLAALPGDLPSWTRSLNLSYNKLSEIDPAGFEDLPNLQEVYLNNNELTAVPSLGAASSHVVSLFLQHNKIRSVEGSQLKAYLSLEVLDLSLNNITEVRNTCFPHGPPIKELNLAGNRIGTLELGAFDGLSRSLLTLRLSKNRITQLPVRAFKLPRLTQLDLNRNRIRLIEGLTFQGLNSLEVLKLQRNNISKLTDGAFWGLSKMHVLHLEYNSLVEVNSGSLYGLTALHQLHLSNNSIARIHRKGWSFCQKLHELVLSFNNLTRLDEESLAELSSLSVLRLSHNSISHIAEGAFKGLRSLRVLDLDHNEISGTIEDTSGAFSGLDSLSKLTLFGNKIKSVAKRAFSGLEGLEHLNLGGNAIRSVQFDAFVKMKNLKELHISSDSFLCDCQLKWLPPWLIGRMLQAFVTATCAHPESLKGQSIFSVPPESFVCDDFLKPQIITQPETTMAMVGKDIRFTCSAASSSSSPMTFAWKKDNEVLTNADMENFVHVHAQDGEVMEYTTILHLRQVTFGHEGRYQCVITNHFGSTYSHKARLTVNVLPSFTKTPHDITIRTTTMARLECAATGHPNPQIAWQKDGGTDFPAARERRMHVMPDDDVFFITDVKIDDAGVYSCTAQNSAGSISANATLTVLETPSLVVPLEDRVVSVGETVALQCKATGNPPPRITWFKGDRPLSLTERHHLTPDNQLLVVQNVVAEDAGRYTCEMSNTLGTERAHSQLSVLPAAGCRKDGTTVGIFTIAVVSSIVLTSLVWVCIIYQTRKKSEEYSVTNTDETVVPPDVPSYLSSQGTLSDRQETVVRTEGGPQANGHIESNGVCPRDASHFPEPDTHSVACRQPKLCAGSAYHKEPWKAMEKAEGTPGPHKMEHGGRVVCSDCNTEVDCYSRGQAFHPQPVSRDSAQPSAPNGPEPGGSDQEHSPHHQCSRTAAGSCPECQGSLYPSNHDRMLTAVKKKPMASLDGKGDSSWTLARLYHPDSTELQPASSLTSGSPERAEAQYLLVSNGHLPKACDASPESTPLTGQLPGKQRVPLLLAPKS [Q96JA1],percentage of EdU-negative,MCF7; [8],25.4 ± 1%
same,percentage of EdU-negative,MCF7; protein concentration 0.065 µM,25.8 ± 3.1%
same,percentage of EdU-negative,hTERT-HMEC; [8],4.69 ± 0.4%
same,percentage of EdU-negative,hTERT-HMEC; protein concentration 0.065 µM,8.75 ± 1.2%
